Consider 9 molecules from patent US20150344570A1 (published 2015).

Experiment [1] addresses T1, human FcγRIIb extracellular domain with C-terminal His tag (human, UniProt P31994 43-217).
T1 construct: extracellular domain; also called FcgRIIb; 2b; not shown: His tag attached to the C terminus
T1 sequence (looked up): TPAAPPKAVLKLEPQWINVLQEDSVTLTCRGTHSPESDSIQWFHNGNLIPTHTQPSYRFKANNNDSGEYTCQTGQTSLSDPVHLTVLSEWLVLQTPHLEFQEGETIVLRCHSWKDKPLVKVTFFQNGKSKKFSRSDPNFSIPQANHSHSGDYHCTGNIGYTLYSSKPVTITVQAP
Nature of the experiment: SPR (Biacore T100), antibody captured on antigen peptide chip, FcγRIIb as analyte; relative binding. How it is done: (§1) Analysis of interaction between objective antibody and the FcγR was carried out using Biacore T100 (GE Healthcare). HBS-EP+ (GE Healthcare) was used as the running buffer, and the measurement temperature was set to 25° C. Chips produced by immobilizing the antigen peptide by the amine coupling method to a Series S Sencor Chip CM5 (GE Healthcare), or alternatively, chips produced by allowing preliminarily biotinylated antigen peptides to interact with and immobilize onto a Series S Sensor Chip SA (certified) (GE Healthcare) were used. Antibodies of interest were captured onto an antigen peptide-immobilized chip, and allowed to interact to each FcγR diluted with running buffer. To regenerate and repeatedly use the chip, the antibodies captured on the chip were washed off by reacting 10 mM glycine-HCl, pH 1.5.
In general terms: Surface plasmon resonance follows binding to a sensor surface in real time, without labels.

Another experiment concerns the target T2, FcγRIIb (human, UniProt P31994 43-217).
T2 construct: extracellular domain; also called 2b; not shown: His tag at the C terminus
T2 sequence (looked up): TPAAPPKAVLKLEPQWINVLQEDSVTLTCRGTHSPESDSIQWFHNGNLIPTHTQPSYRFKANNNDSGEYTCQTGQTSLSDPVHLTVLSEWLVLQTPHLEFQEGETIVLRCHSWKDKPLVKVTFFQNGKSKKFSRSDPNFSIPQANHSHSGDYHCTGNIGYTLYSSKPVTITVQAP
Description: SPR (Biacore), antibody captured, FcγR as analyte; binding relative to GpH7-A5/GpH7-B3/GpL16-k0 = 100. The procedure: (§2) The heterodimerized antibodies He Abs in which one of the H chains was introduced with an alteration were assayed for their binding activities to each activating FcγR and inhibitory FcγR according to the method described in Example 4. […] The activating FcγRs in FIGS. 26, 27, 28, and 29 are FcγRIa, FcγRIIa (R), FcγRIIa (H), and FcγRIIIa, respectively.
as §1

A further experiment has as its target T3, FcγRIIa H (human, UniProt P12318 34-217).
T3 construct: extracellular domain; also called FcγRIIa type H; 2aH; not shown: His tag at the C terminus
T3 sequence (looked up): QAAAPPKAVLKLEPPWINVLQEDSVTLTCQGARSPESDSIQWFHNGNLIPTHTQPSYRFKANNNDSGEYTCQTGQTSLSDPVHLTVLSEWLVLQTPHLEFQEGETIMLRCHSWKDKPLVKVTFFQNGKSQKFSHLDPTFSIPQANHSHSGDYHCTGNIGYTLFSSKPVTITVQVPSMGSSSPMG
The description is as above. How it is done: as §2, §1

B1: GpH7-B3 variant L328_04F/GpL16-k0 (Ho Ab) (antibody, human IgG1, kappa)
heavy: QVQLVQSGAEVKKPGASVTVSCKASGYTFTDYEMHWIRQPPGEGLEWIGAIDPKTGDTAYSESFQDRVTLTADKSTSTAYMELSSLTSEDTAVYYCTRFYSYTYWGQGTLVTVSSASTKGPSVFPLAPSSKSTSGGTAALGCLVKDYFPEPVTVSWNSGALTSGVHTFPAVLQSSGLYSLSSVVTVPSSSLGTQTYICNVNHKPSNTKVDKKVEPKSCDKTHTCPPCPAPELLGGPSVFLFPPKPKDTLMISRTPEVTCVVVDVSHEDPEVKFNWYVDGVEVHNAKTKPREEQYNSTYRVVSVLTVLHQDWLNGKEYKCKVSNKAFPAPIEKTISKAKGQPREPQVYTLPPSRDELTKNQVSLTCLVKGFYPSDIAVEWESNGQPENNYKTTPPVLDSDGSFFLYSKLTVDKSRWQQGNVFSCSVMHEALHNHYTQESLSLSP
light: DIVMTQSPLSLPVTPGEPASISCQASESLVHSNRNTYLHWYLQKPGQSPQLLIYKVSNRFSGVPDRFSGSGSGTDFTLKISRVEAEDVGVYYCSQNTHVPPTFGQGTKVEIERTVAAPSVFIFPPSDEQLKSGTASVVCLLNNFYPREAKVQWKVDNALQSGNSQESVTEQDSKDSTYSLSSTLTLSKADYEKHKVYACEVTHQGLSSPVTKSFNRGEC
notes: Anti-glypican-3 IgG1; mutation in both H chains; also called L328F homodimerized antibody
Take B1: the Ho/Con_2b in experiment [1] is 241 % of control GpH7-B3/GpL16-k0 (=100).

B2: GpH7-A5/GpH7-B3 variant Y300_06M/GpL16-k0 (antibody, human IgG1, kappa)
heavy 1: not shown
heavy 2: not shown
light: DIVMTQSPLSLPVTPGEPASISCQASESLVHSNRNTYLHWYLQKPGQSPQLLIYKVSNRFSGVPDRFSGSGSGTDFTLKISRVEAEDVGVYYCSQNTHVPPTFGQGTKVEIERTVAAPSVFIFPPSDEQLKSGTASVVCLLNNFYPREAKVQWKVDNALQSGNSQESVTEQDSKDSTYSLSSTLTLSKADYEKHKVYACEVTHQGLSSPVTKSFNRGEC
notes: Heterodimerized IgG1; mutation in the GpH7-B3 chain only; also called He Ab
As to B2, the He/Con_2b with FcγRIIb is 84.3 % of control. Besides, the He/Con_2aH with FcγRIIa H is 105 % of control.

B3: GpH7-B3 variant K334_18N/GpL16-k0 (Ho Ab) (antibody, human IgG1, kappa)
heavy: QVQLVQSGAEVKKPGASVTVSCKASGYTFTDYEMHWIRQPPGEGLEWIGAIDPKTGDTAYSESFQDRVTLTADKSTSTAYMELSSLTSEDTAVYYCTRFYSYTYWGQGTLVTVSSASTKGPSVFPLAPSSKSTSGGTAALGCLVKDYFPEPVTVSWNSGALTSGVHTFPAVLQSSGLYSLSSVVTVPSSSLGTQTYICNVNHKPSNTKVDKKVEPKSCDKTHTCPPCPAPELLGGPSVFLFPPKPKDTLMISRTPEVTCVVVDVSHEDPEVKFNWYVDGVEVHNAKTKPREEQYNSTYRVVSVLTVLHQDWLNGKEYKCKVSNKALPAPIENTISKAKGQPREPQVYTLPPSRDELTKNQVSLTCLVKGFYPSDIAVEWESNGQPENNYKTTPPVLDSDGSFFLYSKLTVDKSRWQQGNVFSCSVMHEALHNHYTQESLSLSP
light: DIVMTQSPLSLPVTPGEPASISCQASESLVHSNRNTYLHWYLQKPGQSPQLLIYKVSNRFSGVPDRFSGSGSGTDFTLKISRVEAEDVGVYYCSQNTHVPPTFGQGTKVEIERTVAAPSVFIFPPSDEQLKSGTASVVCLLNNFYPREAKVQWKVDNALQSGNSQESVTEQDSKDSTYSLSSTLTLSKADYEKHKVYACEVTHQGLSSPVTKSFNRGEC
notes: Anti-glypican-3 IgG1; mutation in both H chains; also called K334N homodimerized antibody
As to B3, the Ho/Con_2b in experiment [1] was 128 % of control GpH7-B3/GpL16-k0 (=100).

B4: GpH7-B3 variant K334_16H/GpL16-k0 (Ho Ab) (antibody, human IgG1, kappa)
heavy: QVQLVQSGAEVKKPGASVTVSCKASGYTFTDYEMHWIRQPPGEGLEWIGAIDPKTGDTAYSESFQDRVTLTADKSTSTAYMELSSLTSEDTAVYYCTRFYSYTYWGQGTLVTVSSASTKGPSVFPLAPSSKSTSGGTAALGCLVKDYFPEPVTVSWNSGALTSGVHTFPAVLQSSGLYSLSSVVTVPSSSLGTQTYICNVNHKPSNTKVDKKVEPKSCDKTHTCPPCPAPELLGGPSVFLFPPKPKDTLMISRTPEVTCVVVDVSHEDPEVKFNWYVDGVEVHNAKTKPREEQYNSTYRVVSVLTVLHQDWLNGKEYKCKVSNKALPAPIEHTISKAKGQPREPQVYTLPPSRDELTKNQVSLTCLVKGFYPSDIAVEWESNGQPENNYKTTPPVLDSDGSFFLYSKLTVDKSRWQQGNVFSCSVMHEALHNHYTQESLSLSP
light: DIVMTQSPLSLPVTPGEPASISCQASESLVHSNRNTYLHWYLQKPGQSPQLLIYKVSNRFSGVPDRFSGSGSGTDFTLKISRVEAEDVGVYYCSQNTHVPPTFGQGTKVEIERTVAAPSVFIFPPSDEQLKSGTASVVCLLNNFYPREAKVQWKVDNALQSGNSQESVTEQDSKDSTYSLSSTLTLSKADYEKHKVYACEVTHQGLSSPVTKSFNRGEC
notes: Anti-glypican-3 IgG1; mutation in both H chains; also called K334H homodimerized antibody
On to B4, for which the Ho/Con_2b in experiment [1] is 124 % of control GpH7-B3/GpL16-k0 (=100).

B5: GpH7-B3 variant K334_15Y/GpL16-k0 (Ho Ab) (antibody, human IgG1, kappa)
heavy: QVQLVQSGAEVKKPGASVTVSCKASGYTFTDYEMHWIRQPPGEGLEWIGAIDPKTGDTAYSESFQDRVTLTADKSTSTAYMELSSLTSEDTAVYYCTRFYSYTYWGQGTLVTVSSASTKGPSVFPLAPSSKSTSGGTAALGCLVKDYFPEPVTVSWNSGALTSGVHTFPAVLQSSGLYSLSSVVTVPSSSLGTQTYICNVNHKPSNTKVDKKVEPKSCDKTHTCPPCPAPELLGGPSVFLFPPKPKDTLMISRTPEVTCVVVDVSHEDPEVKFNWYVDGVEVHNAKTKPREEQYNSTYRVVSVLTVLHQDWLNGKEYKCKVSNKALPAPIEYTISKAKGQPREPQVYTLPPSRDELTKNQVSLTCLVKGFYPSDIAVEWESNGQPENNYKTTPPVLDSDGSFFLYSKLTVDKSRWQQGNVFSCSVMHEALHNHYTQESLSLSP
light: DIVMTQSPLSLPVTPGEPASISCQASESLVHSNRNTYLHWYLQKPGQSPQLLIYKVSNRFSGVPDRFSGSGSGTDFTLKISRVEAEDVGVYYCSQNTHVPPTFGQGTKVEIERTVAAPSVFIFPPSDEQLKSGTASVVCLLNNFYPREAKVQWKVDNALQSGNSQESVTEQDSKDSTYSLSSTLTLSKADYEKHKVYACEVTHQGLSSPVTKSFNRGEC
notes: Anti-glypican-3 IgG1; mutation in both H chains; also called K334Y homodimerized antibody
For the molecule B5, the Ho/Con_2b in experiment [1] is 126 % of control GpH7-B3/GpL16-k0 (=100).

B6: GpH7-A5/GpH7-B3 variant Y300_07I/GpL16-k0 (antibody, human IgG1, kappa)
heavy 1: not shown
heavy 2: not shown
light: DIVMTQSPLSLPVTPGEPASISCQASESLVHSNRNTYLHWYLQKPGQSPQLLIYKVSNRFSGVPDRFSGSGSGTDFTLKISRVEAEDVGVYYCSQNTHVPPTFGQGTKVEIERTVAAPSVFIFPPSDEQLKSGTASVVCLLNNFYPREAKVQWKVDNALQSGNSQESVTEQDSKDSTYSLSSTLTLSKADYEKHKVYACEVTHQGLSSPVTKSFNRGEC
notes: as for B2
Regarding B6, in the experiment with FcγRIIb, the He/Con_2b was 74.5 % of control. Further, the He/Con_2aH with FcγRIIa H was 108 % of control.

B7: GpH7-B3 variant L328_06M/GpL16-k0 (Ho Ab) (antibody, human IgG1, kappa)
heavy: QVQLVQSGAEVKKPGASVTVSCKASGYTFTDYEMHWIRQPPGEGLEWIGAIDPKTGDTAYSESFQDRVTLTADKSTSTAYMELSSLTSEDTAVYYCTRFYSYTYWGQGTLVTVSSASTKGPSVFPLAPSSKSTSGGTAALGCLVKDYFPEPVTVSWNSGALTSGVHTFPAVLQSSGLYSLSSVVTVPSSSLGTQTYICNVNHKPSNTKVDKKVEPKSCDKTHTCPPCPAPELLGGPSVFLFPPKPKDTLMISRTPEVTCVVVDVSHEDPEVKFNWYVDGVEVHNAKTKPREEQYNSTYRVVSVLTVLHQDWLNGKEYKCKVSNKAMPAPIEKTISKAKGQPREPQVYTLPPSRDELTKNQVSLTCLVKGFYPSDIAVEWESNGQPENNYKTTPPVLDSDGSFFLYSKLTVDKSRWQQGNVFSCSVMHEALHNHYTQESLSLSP
light: DIVMTQSPLSLPVTPGEPASISCQASESLVHSNRNTYLHWYLQKPGQSPQLLIYKVSNRFSGVPDRFSGSGSGTDFTLKISRVEAEDVGVYYCSQNTHVPPTFGQGTKVEIERTVAAPSVFIFPPSDEQLKSGTASVVCLLNNFYPREAKVQWKVDNALQSGNSQESVTEQDSKDSTYSLSSTLTLSKADYEKHKVYACEVTHQGLSSPVTKSFNRGEC
notes: Anti-glypican-3 IgG1; mutation in both H chains; also called L328M homodimerized antibody
On to B7, for which the Ho/Con_2b in experiment [1] was 171 % of control GpH7-B3/GpL16-k0 (=100).

B8: GpH7-A5/GpH7-B3 variant Y296_16H/GpL16-k0 (antibody, human IgG1, kappa)
heavy 1: not shown
heavy 2: not shown
light: DIVMTQSPLSLPVTPGEPASISCQASESLVHSNRNTYLHWYLQKPGQSPQLLIYKVSNRFSGVPDRFSGSGSGTDFTLKISRVEAEDVGVYYCSQNTHVPPTFGQGTKVEIERTVAAPSVFIFPPSDEQLKSGTASVVCLLNNFYPREAKVQWKVDNALQSGNSQESVTEQDSKDSTYSLSSTLTLSKADYEKHKVYACEVTHQGLSSPVTKSFNRGEC
notes: as for B2
With B8, in the experiment with FcγRIIb, the He/Con_2b is 92.2 % of control. In addition, in the experiment with FcγRIIa H, the He/Con_2aH is 104 % of control.

B9: GpH7-B3 variant K334_19Q/GpL16-k0 (Ho Ab) (antibody, human IgG1, kappa)
heavy: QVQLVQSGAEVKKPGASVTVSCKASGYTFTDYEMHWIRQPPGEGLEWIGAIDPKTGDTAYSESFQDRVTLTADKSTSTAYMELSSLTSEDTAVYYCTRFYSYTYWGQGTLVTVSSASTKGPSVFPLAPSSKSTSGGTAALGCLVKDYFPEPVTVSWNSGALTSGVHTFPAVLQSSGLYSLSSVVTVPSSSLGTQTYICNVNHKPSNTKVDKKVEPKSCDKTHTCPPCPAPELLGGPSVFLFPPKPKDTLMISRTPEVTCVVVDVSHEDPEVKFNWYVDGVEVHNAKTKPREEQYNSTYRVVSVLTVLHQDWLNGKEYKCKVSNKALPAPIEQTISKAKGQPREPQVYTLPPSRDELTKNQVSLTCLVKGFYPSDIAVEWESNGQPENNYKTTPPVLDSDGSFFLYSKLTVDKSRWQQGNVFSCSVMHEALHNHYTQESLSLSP
light: DIVMTQSPLSLPVTPGEPASISCQASESLVHSNRNTYLHWYLQKPGQSPQLLIYKVSNRFSGVPDRFSGSGSGTDFTLKISRVEAEDVGVYYCSQNTHVPPTFGQGTKVEIERTVAAPSVFIFPPSDEQLKSGTASVVCLLNNFYPREAKVQWKVDNALQSGNSQESVTEQDSKDSTYSLSSTLTLSKADYEKHKVYACEVTHQGLSSPVTKSFNRGEC
notes: Anti-glypican-3 IgG1; mutation in both H chains; also called K334Q homodimerized antibody
Regarding B9, the Ho/Con_2b in experiment [1] is 117 % of control GpH7-B3/GpL16-k0 (=100).
